The target of the assay is T1, VacA, the vacuolating cytotoxin of Helicobacter pylori (Helicobacter pylori ATCC49503, UniProt Q48245 34-854).
T1 sequence: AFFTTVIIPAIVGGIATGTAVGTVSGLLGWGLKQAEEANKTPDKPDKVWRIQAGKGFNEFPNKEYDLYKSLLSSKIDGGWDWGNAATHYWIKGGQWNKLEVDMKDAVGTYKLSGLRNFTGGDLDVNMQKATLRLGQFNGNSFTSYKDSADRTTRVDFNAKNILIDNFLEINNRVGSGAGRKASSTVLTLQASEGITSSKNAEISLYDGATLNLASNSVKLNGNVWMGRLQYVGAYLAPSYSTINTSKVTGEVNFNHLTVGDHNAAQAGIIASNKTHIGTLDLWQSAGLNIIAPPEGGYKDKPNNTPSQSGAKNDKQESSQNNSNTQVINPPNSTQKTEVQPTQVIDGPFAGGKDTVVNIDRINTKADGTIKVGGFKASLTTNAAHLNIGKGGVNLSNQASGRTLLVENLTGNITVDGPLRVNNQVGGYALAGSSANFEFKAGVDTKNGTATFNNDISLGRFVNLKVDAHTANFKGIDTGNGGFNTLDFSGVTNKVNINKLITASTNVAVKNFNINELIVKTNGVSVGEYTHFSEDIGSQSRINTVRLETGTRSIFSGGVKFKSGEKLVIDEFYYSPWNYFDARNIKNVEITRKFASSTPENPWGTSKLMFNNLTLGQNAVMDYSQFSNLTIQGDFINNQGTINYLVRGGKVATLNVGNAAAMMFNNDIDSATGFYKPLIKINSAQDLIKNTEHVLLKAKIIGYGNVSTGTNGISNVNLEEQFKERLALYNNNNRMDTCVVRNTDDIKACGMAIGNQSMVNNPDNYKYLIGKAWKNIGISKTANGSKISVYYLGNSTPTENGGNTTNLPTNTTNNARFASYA
The assay is described as follows: SPR; BIAcore X, 25°C; GST-MMRN1 amine-coupled to a CM5 chip; VacA in PBS with 1 mM Ca++ perfused at 20 μL/min; control surface subtracted. The conditions noted are these: both partners purified. Background: Surface plasmon resonance follows binding to a sensor surface in real time, without labels.

B1: Glutathione S-transferase (GST)-fusion protein of multimerin 1 (291a.a. ~ 391a.a.) (domain or fragment)
chain: IHTNQAESHTAVGRGVAEQQQQQGCGDPEVMQKMTDQVNYQAMKLTLLQKKIDNISLTVNDVRNTYSSLEGKVSEDKSREFQSLLKGLKSKSINVLIRDIV
notes: multimerin 1 (MMRN1), residues 291-391; also called GST-MMRN1; GST-fusion protein of partial MMRN1 (291aa-391aa); source: bought: Abnova Corporation
The Kd is the free concentration of one partner at which half of the binding sites on the other are occupied at equilibrium, for simple one-to-one binding. A lower Kd goes with higher affinity. Take B1: binding was put at a Kd of 33 nM.

(Values after PMC3842841, “VacA, the vacuolating cytotoxin of Helicobacter pylori, binds to multimerin 1 on human platelets” (Thrombosis Journal, 2013).)
